From publication PMC6779512 (Proteins, 2019)
Residue numbers refer to the chain shown, from its start. In names and notes the source's numbering stands.

B1: Spa47 E267A (enzyme)
chain: MSYTKLLTQLSFPNRISGPILETSLSDVSIGEICNIQAGIESNEIVARAQVVGFHDEKTILSLIGNSRGLSRQTLIKPTAQFLHTQVGRGLLGAVVNPLGEVTDKFAVTDNSEILYRPVDNAPPLYSERAAIEKPFLTGIKVIDSLLTCGEGQRMGIFASAGCGKTFLMNMLIEHSGADIYVIGLIGERGREVTETVDYLKNSEKKSRCVLVYATSDYSSVDRCNAAYIATAIAEFFRTEGHKVALFIDSLTRYARALRDVALAAGASPARRGYPVSVFDSLPRLLERPGKLKAGGSITAFYTVLLEDDDFADPLAEEVRSILDGHIYLSRNLAQKGQFPAIDSLKSISRVFTQVVDEKHRIMAAAFRELLSEIEELRTIIDFGEYKPGENASQDKIYNKISVVESFLKQDYRLGFTYEQTMELIGETIR
B2: Spa47 E267R (enzyme)
chain: B1 chain with A267R

Target: the molecule itself
Experiment: SEC

| Protein | binding result |
| --- | --- |
| B1 | binds |
| B2 | binds |
